Assay results taken from patent publication US20260167699A1 (Chugai, published 2026).

How the values were obtained:
Experiment in all cases: SPR; He Ab vs HeCon Ab (GpH7-A5/GpH7-B3/GpL16-k0)=100;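 further: surface plasmon resonance at 25 °C with the test antibody captured on a sensor chip via antigenic peptide, protein L or protein A/G and FcγR flowed over as analyte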
[1] = molecular target: T1, FcγRIIa(R) extracellular domain, C-terminal His tag (human, UniProt P12318 34-217)
T1 construct: extracellular domain; also called 2aR
T1 sequence: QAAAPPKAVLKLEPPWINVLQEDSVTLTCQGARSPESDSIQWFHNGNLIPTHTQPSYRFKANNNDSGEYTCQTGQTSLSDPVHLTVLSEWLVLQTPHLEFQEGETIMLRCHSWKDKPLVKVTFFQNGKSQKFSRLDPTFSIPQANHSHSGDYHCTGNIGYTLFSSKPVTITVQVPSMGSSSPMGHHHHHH
Procedure: (§1) The antibody of interest was analyzed for its interaction with FcγR using a BiaCore™ T100, BiaCore™ A100, or BiaCore™ 4000 surface plasmon resonance system (GE Healthcare Japan Corp.). The running buffer used was HBS-EP+ (GE Healthcare Japan Corp.). The assay temperature was set to 25° C. The sensor chips used were: a chip prepared by immobilizing antigenic peptides onto Series S Sensor Chip CM5 (GE Healthcare Japan Corp.) by the amine coupling method; a chip prepared by immobilizing antigenic peptides biotinylated in advance onto Series S Sensor Chip SA (certified) (GE Healthcare Japan Corp.) through their interaction; a chip prepared by immobilizing protein L (ACTIGEN, BioVision, Inc.) onto Series S Sensor Chip CM5 (GE Healthcare Japan Corp.); and a chip prepared by immobilizing protein A/G (Thermo Fisher Scientific K.K.) onto Series S Sensor Chip CM5 (GE Healthcare Japan Corp.). The antibody of interest was captured onto any of these chips and allowed to interact with FcγR diluted with a running buffer. The antibody captured on the chip was washed off through the reaction of 10 mM glycine-HCl (pH 1.5) to regenerate the chip, which was repetitively used.

[2] = molecular target: T2, FcγRIa extracellular domain, C-terminal His tag (human, UniProt P12314 16-292)
T2 construct: extracellular domain; also called 1a
Procedure: as §1

[3] = molecular target: T3, FcγRIIIa extracellular domain, C-terminal His tag (human, UniProt P08637 17-208)
T3 construct: extracellular domain; also called 3a
Procedure: as §1

[4] = molecular target: T4, FcγRIIa(H) extracellular domain, C-terminal His tag (human, UniProt P12318 34-217)
T4 construct: extracellular domain; also called 2aH
T4 sequence: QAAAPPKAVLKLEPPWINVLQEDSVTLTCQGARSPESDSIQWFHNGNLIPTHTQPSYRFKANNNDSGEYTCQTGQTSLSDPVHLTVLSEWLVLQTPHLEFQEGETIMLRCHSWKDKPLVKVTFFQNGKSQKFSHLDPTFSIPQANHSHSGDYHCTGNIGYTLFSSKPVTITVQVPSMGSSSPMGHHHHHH
Procedure: as §1

[5] = molecular target: T5, FcγRIIb extracellular domain, C-terminal His tag (human, UniProt P31994 43-217)
T5 construct: extracellular domain; also called 2b
T5 sequence: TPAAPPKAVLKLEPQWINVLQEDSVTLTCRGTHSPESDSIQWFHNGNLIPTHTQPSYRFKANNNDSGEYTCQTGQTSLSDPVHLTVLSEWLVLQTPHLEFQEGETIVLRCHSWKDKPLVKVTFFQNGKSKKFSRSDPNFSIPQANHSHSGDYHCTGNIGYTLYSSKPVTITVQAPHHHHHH
Procedure: as §1

T3 sequence (P08637 other isoform, or with tags, fused parts or gaps): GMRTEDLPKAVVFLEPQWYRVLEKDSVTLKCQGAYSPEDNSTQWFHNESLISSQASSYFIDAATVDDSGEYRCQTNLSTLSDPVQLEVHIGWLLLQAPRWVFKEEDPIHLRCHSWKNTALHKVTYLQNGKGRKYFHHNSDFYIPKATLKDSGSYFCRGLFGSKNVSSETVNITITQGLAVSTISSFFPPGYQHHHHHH
T2 sequence (P12314 other isoform, or with tags, fused parts or gaps): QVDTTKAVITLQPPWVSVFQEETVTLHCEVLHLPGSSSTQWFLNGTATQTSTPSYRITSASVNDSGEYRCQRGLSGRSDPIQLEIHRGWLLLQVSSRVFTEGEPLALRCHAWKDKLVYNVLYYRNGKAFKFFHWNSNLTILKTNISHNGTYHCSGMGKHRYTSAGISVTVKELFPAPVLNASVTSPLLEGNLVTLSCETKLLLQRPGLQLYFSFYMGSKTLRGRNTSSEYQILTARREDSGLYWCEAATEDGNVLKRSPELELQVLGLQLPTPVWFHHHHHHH

B1: GpH7-A5/GpH7-B3 variant S298_11K/GpL16-k0 (antibody, human IgG1, kappa)
heavy 1: not shown
heavy 2: not shown
light: DIVMTQSPLSLPVTPGEPASISCQASESLVHSNRNTYLHWYLQKPGQSPQLLIYKVSNRFSGVPDRFSGSGSGTDFTLKISRVEAEDVGVYYCSQNTHVPPTFGQGTKVEIERTVAAPSVFIFPPSDEQLKSGTASVVCLLNNFYPREAKVQWKVDNALQSGNSQESVTEQDSKDSTYSLSSTLTLSKADYEKHKVYACEVTHQGLSSPVTKSFNRGEC
notes: heterodimerized IgG1, one H chain mutated; also called He Ab; copies: 1 + 1 + 2
He/Con 2aR [1]: 91% | He/Con 1a [2]: 106% | He/Con 3a [3]: 50% | He/Con 2aH [4]: 63.9% | He/Con 2b [5]: 62.2%

B2: GpH7-A5/GpH7-B3 variant S324_08L/GpL16-k0 (antibody, human IgG1, kappa)
heavy 1: not shown
heavy 2: not shown
light: DIVMTQSPLSLPVTPGEPASISCQASESLVHSNRNTYLHWYLQKPGQSPQLLIYKVSNRFSGVPDRFSGSGSGTDFTLKISRVEAEDVGVYYCSQNTHVPPTFGQGTKVEIERTVAAPSVFIFPPSDEQLKSGTASVVCLLNNFYPREAKVQWKVDNALQSGNSQESVTEQDSKDSTYSLSSTLTLSKADYEKHKVYACEVTHQGLSSPVTKSFNRGEC
notes: as for B1
He/Con 2aR [1]: 110% | He/Con 1a [2]: 97.3% | He/Con 3a [3]: 95.5% | He/Con 2aH [4]: 106% | He/Con 2b [5]: 117%

B3: GpH7-A5/GpH7-B3 variant S324_11K/GpL16-k0 (antibody, human IgG1, kappa)
heavy 1: not shown
heavy 2: not shown
light: DIVMTQSPLSLPVTPGEPASISCQASESLVHSNRNTYLHWYLQKPGQSPQLLIYKVSNRFSGVPDRFSGSGSGTDFTLKISRVEAEDVGVYYCSQNTHVPPTFGQGTKVEIERTVAAPSVFIFPPSDEQLKSGTASVVCLLNNFYPREAKVQWKVDNALQSGNSQESVTEQDSKDSTYSLSSTLTLSKADYEKHKVYACEVTHQGLSSPVTKSFNRGEC
notes: as for B1
He/Con 2aR [1]: 91% | He/Con 1a [2]: 96.3% | He/Con 3a [3]: 90.2% | He/Con 2aH [4]: 102% | He/Con 2b [5]: 89.6%

B4: GpH7-A5/GpH7-B3 variant S298_19Q/GpL16-k0 (antibody, human IgG1, kappa)
heavy 1: not shown
heavy 2: not shown
light: DIVMTQSPLSLPVTPGEPASISCQASESLVHSNRNTYLHWYLQKPGQSPQLLIYKVSNRFSGVPDRFSGSGSGTDFTLKISRVEAEDVGVYYCSQNTHVPPTFGQGTKVEIERTVAAPSVFIFPPSDEQLKSGTASVVCLLNNFYPREAKVQWKVDNALQSGNSQESVTEQDSKDSTYSLSSTLTLSKADYEKHKVYACEVTHQGLSSPVTKSFNRGEC
notes: as for B1
He/Con 2aR [1]: 90.9% | He/Con 1a [2]: 106% | He/Con 3a [3]: 70.6% | He/Con 2aH [4]: 88.9% | He/Con 2b [5]: 74.3%

B5: GpH7-A5/GpH7-B3 variant S298_12R/GpL16-k0 (antibody, human IgG1, kappa)
heavy 1: not shown
heavy 2: not shown
light: DIVMTQSPLSLPVTPGEPASISCQASESLVHSNRNTYLHWYLQKPGQSPQLLIYKVSNRFSGVPDRFSGSGSGTDFTLKISRVEAEDVGVYYCSQNTHVPPTFGQGTKVEIERTVAAPSVFIFPPSDEQLKSGTASVVCLLNNFYPREAKVQWKVDNALQSGNSQESVTEQDSKDSTYSLSSTLTLSKADYEKHKVYACEVTHQGLSSPVTKSFNRGEC
notes: as for B1
He/Con 2aR [1]: 81.6% | He/Con 1a [2]: 106% | He/Con 3a [3]: 52.1% | He/Con 2aH [4]: 67.4% | He/Con 2b [5]: 58.6%

B6: GpH7-A5/GpH7-B3 variant S324_03V/GpL16-k0 (antibody, human IgG1, kappa)
heavy 1: not shown
heavy 2: not shown
light: DIVMTQSPLSLPVTPGEPASISCQASESLVHSNRNTYLHWYLQKPGQSPQLLIYKVSNRFSGVPDRFSGSGSGTDFTLKISRVEAEDVGVYYCSQNTHVPPTFGQGTKVEIERTVAAPSVFIFPPSDEQLKSGTASVVCLLNNFYPREAKVQWKVDNALQSGNSQESVTEQDSKDSTYSLSSTLTLSKADYEKHKVYACEVTHQGLSSPVTKSFNRGEC
notes: as for B1
He/Con 2aR [1]: 113% | He/Con 1a [2]: 97.7% | He/Con 3a [3]: 101% | He/Con 2aH [4]: 108% | He/Con 2b [5]: 128%

B7: GpH7-A5/GpH7-B3 variant S324_07I/GpL16-k0 (antibody, human IgG1, kappa)
heavy 1: not shown
heavy 2: not shown
light: DIVMTQSPLSLPVTPGEPASISCQASESLVHSNRNTYLHWYLQKPGQSPQLLIYKVSNRFSGVPDRFSGSGSGTDFTLKISRVEAEDVGVYYCSQNTHVPPTFGQGTKVEIERTVAAPSVFIFPPSDEQLKSGTASVVCLLNNFYPREAKVQWKVDNALQSGNSQESVTEQDSKDSTYSLSSTLTLSKADYEKHKVYACEVTHQGLSSPVTKSFNRGEC
notes: as for B1
He/Con 2aR [1]: 109% | He/Con 1a [2]: 96.2% | He/Con 3a [3]: 101% | He/Con 2aH [4]: 107% | He/Con 2b [5]: 125%

B8: GpH7-A5/GpH7-B3 variant S324_04F/GpL16-k0 (antibody, human IgG1, kappa)
heavy 1: not shown
heavy 2: not shown
light: DIVMTQSPLSLPVTPGEPASISCQASESLVHSNRNTYLHWYLQKPGQSPQLLIYKVSNRFSGVPDRFSGSGSGTDFTLKISRVEAEDVGVYYCSQNTHVPPTFGQGTKVEIERTVAAPSVFIFPPSDEQLKSGTASVVCLLNNFYPREAKVQWKVDNALQSGNSQESVTEQDSKDSTYSLSSTLTLSKADYEKHKVYACEVTHQGLSSPVTKSFNRGEC
notes: as for B1
He/Con 2aR [1]: 99.6% | He/Con 1a [2]: 103% | He/Con 3a [3]: 99.3% | He/Con 2aH [4]: 106% | He/Con 2b [5]: 99.9%

B9: GpH7-A5/GpH7-B3 variant S298_15Y/GpL16-k0 (antibody, human IgG1, kappa)
heavy 1: not shown
heavy 2: not shown
light: DIVMTQSPLSLPVTPGEPASISCQASESLVHSNRNTYLHWYLQKPGQSPQLLIYKVSNRFSGVPDRFSGSGSGTDFTLKISRVEAEDVGVYYCSQNTHVPPTFGQGTKVEIERTVAAPSVFIFPPSDEQLKSGTASVVCLLNNFYPREAKVQWKVDNALQSGNSQESVTEQDSKDSTYSLSSTLTLSKADYEKHKVYACEVTHQGLSSPVTKSFNRGEC
notes: as for B1
He/Con 2aR [1]: 75.7% | He/Con 1a [2]: 104% | He/Con 3a [3]: 80.6% | He/Con 2aH [4]: 71.2% | He/Con 2b [5]: 62.2%

B10: GpH7-A5/GpH7-B3 variant S324_09D/GpL16-k0 (antibody, human IgG1, kappa)
heavy 1: not shown
heavy 2: not shown
light: DIVMTQSPLSLPVTPGEPASISCQASESLVHSNRNTYLHWYLQKPGQSPQLLIYKVSNRFSGVPDRFSGSGSGTDFTLKISRVEAEDVGVYYCSQNTHVPPTFGQGTKVEIERTVAAPSVFIFPPSDEQLKSGTASVVCLLNNFYPREAKVQWKVDNALQSGNSQESVTEQDSKDSTYSLSSTLTLSKADYEKHKVYACEVTHQGLSSPVTKSFNRGEC
notes: as for B1
He/Con 2aR [1]: 102% | He/Con 1a [2]: 97.7% | He/Con 3a [3]: 110% | He/Con 2aH [4]: 117% | He/Con 2b [5]: 112%

B11: GpH7-A5/GpH7-B3 variant S324_10E/GpL16-k0 (antibody, human IgG1, kappa)
heavy 1: not shown
heavy 2: not shown
light: DIVMTQSPLSLPVTPGEPASISCQASESLVHSNRNTYLHWYLQKPGQSPQLLIYKVSNRFSGVPDRFSGSGSGTDFTLKISRVEAEDVGVYYCSQNTHVPPTFGQGTKVEIERTVAAPSVFIFPPSDEQLKSGTASVVCLLNNFYPREAKVQWKVDNALQSGNSQESVTEQDSKDSTYSLSSTLTLSKADYEKHKVYACEVTHQGLSSPVTKSFNRGEC
notes: as for B1
He/Con 2aR [1]: 99% | He/Con 1a [2]: 98.9% | He/Con 3a [3]: 108% | He/Con 2aH [4]: 114% | He/Con 2b [5]: 101%

B12: GpH7-A5/GpH7-B3 variant S298_16H/GpL16-k0 (antibody, human IgG1, kappa)
heavy 1: not shown
heavy 2: not shown
light: DIVMTQSPLSLPVTPGEPASISCQASESLVHSNRNTYLHWYLQKPGQSPQLLIYKVSNRFSGVPDRFSGSGSGTDFTLKISRVEAEDVGVYYCSQNTHVPPTFGQGTKVEIERTVAAPSVFIFPPSDEQLKSGTASVVCLLNNFYPREAKVQWKVDNALQSGNSQESVTEQDSKDSTYSLSSTLTLSKADYEKHKVYACEVTHQGLSSPVTKSFNRGEC
notes: as for B1
He/Con 2aR [1]: 84.7% | He/Con 1a [2]: 105% | He/Con 3a [3]: 71.9% | He/Con 2aH [4]: 80.2% | He/Con 2b [5]: 64.4%

B13: GpH7-A5/GpH7-B3 variant S298_14T/GpL16-k0 (antibody, human IgG1, kappa)
heavy 1: not shown
heavy 2: not shown
light: DIVMTQSPLSLPVTPGEPASISCQASESLVHSNRNTYLHWYLQKPGQSPQLLIYKVSNRFSGVPDRFSGSGSGTDFTLKISRVEAEDVGVYYCSQNTHVPPTFGQGTKVEIERTVAAPSVFIFPPSDEQLKSGTASVVCLLNNFYPREAKVQWKVDNALQSGNSQESVTEQDSKDSTYSLSSTLTLSKADYEKHKVYACEVTHQGLSSPVTKSFNRGEC
notes: as for B1
He/Con 2aR [1]: 94.2% | He/Con 1a [2]: 104% | He/Con 3a [3]: 106% | He/Con 2aH [4]: 96.2% | He/Con 2b [5]: 79%
